Earlier results as cited in article PMC3781210.
pKd: −log10 of the molar value. Where two headings read alike, the source gives them in different places. Each block holds one substance with its values, some of them ahead of it.

What was measured:
[1] = molecular target: Beclin 1 (Homo sapiens) (UniProt Q14457)
[2] = molecular target: Beclin 1 (Homo sapiens) (UniProt Q14457); remark: listed apart in the source
[3] = molecular target: Beclin 1 (Homo sapiens) (UniProt Q14457); remark: listed apart in the source

Chain of UniProt Q14457 (Q14457 150-450): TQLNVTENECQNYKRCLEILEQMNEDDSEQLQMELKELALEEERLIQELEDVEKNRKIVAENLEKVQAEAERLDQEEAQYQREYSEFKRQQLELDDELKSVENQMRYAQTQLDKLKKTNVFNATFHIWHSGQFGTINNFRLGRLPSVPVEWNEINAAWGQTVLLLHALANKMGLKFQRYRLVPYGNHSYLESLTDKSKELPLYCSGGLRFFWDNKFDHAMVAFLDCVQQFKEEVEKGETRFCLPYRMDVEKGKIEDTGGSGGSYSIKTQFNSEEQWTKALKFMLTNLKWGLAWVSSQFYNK

pKd [1]: 5.77
Substance: Bcl-2 (from UniProt P10415)

pKd [2]: 5.77
Substance: Bcl-XL (from UniProt Q07817)

Substance: vBcl-2 (from UniProt P89884)
pKd [3]: 7.40
